From patent US11021532 come the findings set out here.

Read-outs that look alike come from different tables or passages of the source.

The target of test [1] is SARS-CoV-2 Receptor Binding Domain (RBD) protein (SARS-CoV-2). The experiment in a line: SPR (Carterra LSA), scFv captured via anti-V5, RBD as analyte.
Test [2] shares this target. The test is described as follows: SPR (Carterra LSA), scFv captured via anti-V5, RBD as analyte, 1:1 fit.
Test [3] shares this target.

B1: COVID19_P24_F11 (scFv, V domains shown)
VH: EVQLLESGGGLVQPGGSLRLSCAASGFTFSGSAMHWVRQAPGKGLEYVSAISRNGGTTYYADSVKGRFTISRDNSKNTLYLQMNSLRAEDTAVYYCAKDGTLITTTLDYWGQGTLVTVSS
VL: DIQMTQSPSSLSASVGDRVTITCRASQSIGYYLNWYQQKPGKAPKLLIYAASSLQSGVPSRFSGSGSGTDFTLTISSLQPEDFATYYCQQSYTTPLTFGGGTKVEIKR
In general, Kd refers to the constant that tells how readily two partners part at equilibrium. What is called koff is the rate constant with which the complex falls apart. Read a low koff as a long-lived complex. In general, kon refers to the second-order rate constant of association. A lower kon goes with slower complex formation. In test [1], B1 yielded a Kd of less than 50 nM. Also, in test [2], the Kd was 0.46 nM, the koff was 0.00028 s⁻¹ and the kon turned out to be 616000 M⁻¹ s⁻¹.

B2: COVID19_P11_H02 (scFv, V domains shown)
VH: QVQLVQSGAEVKKPGASVKVSCKASGGTFTSYHMHWVRQAPGQGLEWMGWMNPNSGNTGYALKFQGRVTMTRDTSTSTVYMELSSLRSEDTAVYYCASFERFGELVPETFDYWGQGTLVTVSS
VL: DIQMTQSPSSLSASVGDRVTITCRASQGIRNDLAWYQQKPGKAPKLLIYAASSLQSGVPSRFSGSGSGTDFTLTISSLQPEDFATYYCQQSYSTPPTFGQGTKLEIKR
For B2, in test [1], the Kd was less than 50 nM. In test [2], this molecule came in with a Kd of 2.2 nM, an off-rate (koff) of 0.00071 s⁻¹ and a kon of 320000 M⁻¹ s⁻¹.

B3: COVID19_P11_G03 (scFv, V domains shown)
VH: QVQLVQSGAEVKKPGASVKVSCKASGYTFTSYEINWVRQAPGQGLEWMGIINPSDGSSTYAQKFQGRVTMTRDTSTSTVYMELSSLRSEDTAVYYCARDRGYSYDHDQIYYYYGMDVWGQGTTVTVSS
VL: DIQMTQSPSSLSASVGDRVTITCRVSQGISSYLNWYQQKPGKAPKLLIYAASILQSGVPSRFSGSGSGTDFTLTISSLQPEDFATYYCQQGYSTPFTFGPGTKVDIKR
The molecule B3 displayed a Kd in test [1] of less than 50 nM. In test [2], this molecule registered a Kd of 6.45 nM, a koff of 0.00064 s⁻¹ and a kon of 99000 M⁻¹ s⁻¹.

B4: COVID19_P24_H04 (scFv, V domains shown)
VH: QVQLVQSGAEVKKPGASVKVSCKASGYTFTDYHMHWVRQAPGQGLEWMGWMNPNSGNTSYAQKFQGRVTMTRDTSTSTVYMELSSLRSEDTAVYYCAGMGMGRDGYNSRAFDIWGQGTMVTVSS
VL: DIQMTQSPSSLSASVGDRVTITCRASQSISTYLNWYQQKPGKAPKLLIYAASTLQSGVPSRFSGSGSGTDFTLTISSLQPEDFATYYCQQSYSMPLTFGQGTKVEIKR
On to B4, for which, in test [1], the dissociation constant (Kd) was less than 50 nM. Further, in test [2], the Kd was 4 nM, the koff worked out at 0.00068 s⁻¹ and the kon is 170000 M⁻¹ s⁻¹.

B5: COVID19_P24_A11 (scFv, V domains shown)
VH: QVQLVQSGAEVKKPGASVKVSCKASGYTFTENEMHWVRQAPGQGLEWMGIINPSGGSTSYAQKFQGRVTMTRDTSTSTVYMELSSLRSEDTAVYYCARDLMDIVVVPWLGGMDVWGQGTTVTVSS
VL: DIQMTQSPSSLSASVGDRVTITCRASQAITNYLAWYQQKPGKAPKLLIYAASSLQSGVPSRFSGSGSGTDFTLTISSLQPEDFATYYCQQYYSYPPTFGQGTKLEIKR
With B5, in test [1], the Kd is less than 50 nM. Moreover, in test [2], the Kd is 1.95 nM, the koff stood at 0.000308 s⁻¹ and the kon was determined as 158000 M⁻¹ s⁻¹.

B6: COVID19_P11_D12 (scFv, V domains shown)
VH: QVQLVQSGAEVKKPGASVKVSCKASGYTFTENEMHWVRQAPGQGLEWMGIINPSGGSTSYAQKFQGRVTMTRDTSTSTVYMELSSLRSEDTAVYYCAKTRYGGNSRSRYYYYGMDVWGQGTTVTVSS
VL: DIQMTQSPSSLSASVGDRVTITCRASQHISSYLNWYQQKPGKAPKLLIYAASALQSGVPSRFSGSGSGTDFTLTISSLQPEDFATYYCQQGYGTPYTFGQGTKVEIKR
For the molecule B6, the Kd in test [1] is less than 50 nM. In test [2], this molecule had a Kd of 4.3 nM, a koff of 0.00034 s⁻¹ and a kon of 79000 M⁻¹ s⁻¹.

B7: COVID19_P23_G10 (scFv, V domains shown)
VH: QVQLVQSGAEVKKPGSSVKVSCKASGYTFTDYYIQWVRQAPGQGLEWMGWINPNSGGPNYAQKFQGRVTITADESTSTAYMELSSLRSEDTAVYYCARVDYGDYGRLEDYWGQGTLVTVSS
VL: DIQMTQSPSSLSASVGDRVTITCRASQSIYSWLAWYQQKPGKAPKLLIYDASSLESGVPSRFSGSGSGTDFTLTISSLQPEDFATYYCQQLNSYPYTFGQGTKVEIKR
As for B7, the Kd in test [1] was less than 50 nM. Further, in test [2], the Kd stood at 0.37 nM, the koff came out at 5.7e-05 s⁻¹ and the kon stood at 154000 M⁻¹ s⁻¹.

B8: COVID19_P24_G09 (scFv, V domains shown)
VH: QVQLVQSGAEVKKPGASVKVSCKASGYTFTRYYIHWVRQAPGQGLEWMGIINPSGGSTTYAQKFQGRVTMTRDTSTSTVYMELSSLRSEDTAVYYCAKGAPHDYIWGSYRPDAFDIWGQGTMVTVSS
VL: DIQMTQSPSSLSASVGDRVTITCRASENIDSWLAWYQQKPGKAPKLLIYEASTLESGVPSRFSGSGSGTDFTLTISSLQPEDFATYYCHQYLSSPETFGQGTKVEIKR
With B8, the Kd in test [1] is less than 50 nM. In test [2], this molecule came in with a Kd of 1.56 nM, an off-rate constant (koff) of 0.000512 s⁻¹ and a kon of 329000 M⁻¹ s⁻¹.

B9: COVID19_P24_H06 (scFv, V domains shown)
VH: EVQLLESGGGLVQPGGSLRLSCAASGFSFSNYDMHWVRQAPGKGLEWVAVISYDGGFKLYADSVKGRFTISRDNAKNSLYLRMNSLRSEDTAVYYCARGQVRGSGPQVVVMDVWGKGTTVTVSS
VL: DIQMTQSPSSLSASVGDRVTITCQASQGIRNDLGWYQQKPGKAPKLLIYDASRLQSGVPSRFSGSGSGTDFTLTISSLQPEDFATYYCQQYYSTPPLTFGQGTKVEIKR
On to B9, for which the Kd in test [1] was less than 50 nM. Moreover, in test [2], the Kd is 0.5 nM, the koff was 5.7e-05 s⁻¹ and the kon stood at 120000 M⁻¹ s⁻¹.

B10: COVID19_P24_D09 (scFv, V domains shown)
VH: QVQLVQSGAEVKKPGASVKVSCKASGGTFSSYAISWVRQAPGQGLEWMGIVNPSSGSTTYAQKFQGRVTMTRDTSTSTVYMELSSLRSEDTAVYYCARVRGSAAIAMMDVWGQGTTVTVSS
VL: DIQMTQSPSSLSASVGDRVTITCRASQDIRNELGWYQQKPGKAPKLLIYAASSLQSGVPSRFSGSGSGTDFTLTISSLQPEDFATYYCQQSYSTPPWTFGQGTKLEIKR
Regarding B10, in test [1], the Kd was less than 50 nM. In test [2], the Kd was 0.5 nM, the koff is 5.7e-05 s⁻¹ and the kon worked out at 114000 M⁻¹ s⁻¹.

B11: COVID19_P24_C10 (scFv, V domains shown)
VH: QVQLVQSGAEVKKPGASVKVSCKASGYTFTENEMHWVRQAPGQGLEWMGIINPSGGSTSYAQKFQGRVTMTRDTSTSTVYMELSSLRSEDTAVYYCARDSGVDTATLRYYYYGMDVWGQGTTVTVSS
VL: DIQMTQSPSSLSASVGDRVTITCQASQDISKYLNWYQQKPGKAPKLLIYGASTLSDGVPSRFSGSGSGTDFTLTISSLQPEDFATYYCQQGYSTPYSFGQGTKLEIKR
In the case of B11, the Kd in test [1] is less than 50 nM. Also, in test [2], the Kd was 0.88 nM, the koff is 0.000487 s⁻¹ and the kon was found to be 553000 M⁻¹ s⁻¹.

B12: COVID19_P11_D08 (scFv, V domains shown)
VH: QVQLVQSGAEVKKPGASVKVSCKASGYTFTENEMHWVRQAPGQGLEWMGIINPSGGSTSYAQKFQGRVTMTRDTSTSTVYMELSSLRSEDTAVYYCARDSGVDTATLRYYYYGMDVWGQGTTVTVSS
VL: DIQMTQSPSSLSASVGDRVTITCQASQDISKYLNWYQQKPGKAPKLLIYGASTLSDGVPSRFSGSGSGTDFTLTISSLQPEDFATYYCQQGYSTPYSFGQGTKLEIKR
In test [1], B12 returned a Kd of less than 50 nM. In test [2], this molecule had a Kd of 4.7 nM, an off-rate (koff) of 0.00053 s⁻¹ and a kon of 110000 M⁻¹ s⁻¹.

B13: COVID19_P24_A09 (scFv, V domains shown)
VH: QVQLVQSGAEVKKPGASVKVSCKASGYTFTDYYMQWVRQAPGQGLEWMGWIDPHSGATNYAHSFQGRVTMTRDTSTSTVYMELSSLRSEDTAVYYCARLEGGSYWTGYFDLWGRGTLVTVSS
VL: EIVMTQSPATLSVSPGERATLSCRASQSVSSNYLAWYQQKPGQAPRLLIYAVSSRATGIPARFSGSGSGTEFTLTISSLQSEDFAVYYCQQYGSSPLTFGGGTKVEIKR
The molecule B13 yielded a Kd in test [1] of less than 50 nM. Besides, in test [2], the Kd was determined as 1.51 nM, the koff was found to be 0.000229 s⁻¹ and the kon was 152000 M⁻¹ s⁻¹.

B14: COVID19_P24_C06 (scFv, V domains shown)
VH: QVQLVQSGAEVKKPGASVKVSCKASGYIFTSYPIHWVRQAPGQGLEWMGWMNPNSGNTGYAQKFQGRVTMTRDTSTSTVYMELSSLRSEDTAVYYCARDRGSYDTDAFDIWGQGTMVTVSS
VL: DIQMTQSPSSLSASVGDRVTITCRASQDISNYLNWYQQKPGKAPKLLIYAASNLQSGVPSRFSGSGSGTDFTLTISSLQPEDFATYYCQQANSFPSTFGQGTKLEIKR
For B14, the Kd in test [1] was less than 50 nM. For the same molecule, in test [2], the Kd amounted to 0.3 nM, the koff came out at 5.7e-05 s⁻¹ and the kon was determined as 228000 M⁻¹ s⁻¹.

B15: COVID19_P11_H07 (scFv, V domains shown)
VH: QVQLVQSGAEVKKPGASVKVSCKASGYTFTSYDINWVRQAPGQGLEWMGWMNSNSGSTGYAQKFQGRVTMTRDTSTSTVYMELSSLRSEDTAVYYCARGWMAYDAFDIWGQGTMVTVSS
VL: DIQMTQSPSSLSASVGDRVTITCQASQSIYNYLNWYQQKPGKAPKLLIYDASNLETGVPSRFSGSGSGTDFTLTISSLQPEDFATYYCQQAISFPLTFGGGTKVEIKR
Consider B15, for which the dissociation constant (Kd) in test [3] was less than 50 nM. In test [2], this molecule had a Kd of 0.5 nM, a koff of 5.7e-05 s⁻¹ and a kon of 110000 M⁻¹ s⁻¹.

B16: COVID19_P24_B09 (scFv, V domains shown)
VH: QVQLVQSGAEVKKPGSSVYVSCKASGYTFTSYGISWVRQAPGQGLEWMGGIIPMFGTTNYAQKFQGRVTITADKSTSTAYMELSSLRSEDTAVYYCARDRGDTIDYWGQGTLVTVSS
VL: DIQMTQSPSSLSASVGDRVTITCRASQGISNNLNWYQQKPGKAPKLLIYAASSLESGVPSRFSGSGSGTDFTLTISSLQPEDFATYYCQQGNGFPLTFGPGTKVDIKR
In the case of B16, the Kd in test [1] was less than 50 nM. Further, in test [2], the Kd came out at 27.5 nM, the koff was determined as 0.0139 s⁻¹ and the kon worked out at 508000 M⁻¹ s⁻¹.

B17: COVID19_P23_F10 (scFv, V domains shown)
VH: QVQLVQSGAEVKKPGASVKVSCKASGDTFSNYGISWVRQAPGQGLEWMGWMNPNSGGTNYAQKFQGRVTMTRDTSTSTVYMELSSLRSEDTAVYYCAIGTTVVTPFGYWGQGTLVNVSS
VL: EIVMTQSPATLSVSPGERATLSCRASESVSSRYLAWYQQKPGQAPRLLIYGASTRATGIPARFSGSGSGTEFTLTISSLQSEDFAVYYCQQGYKNPPTFGQGTKVEIKR
B17 had a Kd in test [1] of less than 50 nM. Further, in test [2], the Kd came out at 7.86 nM, the koff worked out at 0.00077 s⁻¹ and the kon stood at 98000 M⁻¹ s⁻¹.
